Publication PMC5430537, “The tarantula toxin β/δ-TRTX-Pre1a highlights the importance of the S1-S2 voltage-sensor region for sodium channel subtype selectivity” (Scientific Reports, 2017)
Bridge positions count the residues as written; N and C are the ends. Peptide text beside a SMILES is read from it.

Experiments:
[1] = tested on: NaV1.7 VSD IV; settings: cited from earlier work
Excerpt: (§1) NaV channel fast inactivation is controlled by the movement of the DIV voltage-sensing domain[17]. […] However, all these peptides share less than 50% similarity with Pre1a (See Fig. 1d) and have very differ ...

[2] = tested on: hNaV1.3; settings: hNaV1.3 and hNaV1.1 peak current; cited from earlier work
Excerpt: as §1

[3] = biological target: T1, hNaV1.1 (Homo sapiens, UniProt P35498); settings: hNaV1.3 and hNaV1.1 peak current; cited from earlier work
Excerpt: as §1

[4] = biological target: T2, rNaV1.3 (Rattus norvegicus, UniProt P08104); experiment: Two-electrode voltage clamp, rNaV1.3 expressed in Xenopus oocytes; format: cell-based
T2 construct: expressed in transfected cells; host or cells: Xenopus laevis oocytes (cRNA injection, alpha subunit alone)
Excerpt: We analysed the rate of fast inactivation (defined as tau, τinact, or the time to reach 36.8% of a single exponential fit of the current decay) and the degree of persistent sodium current measured at 50 ms of depolarisation (NaV1.2 and 1.7) and 100 ms for rNaV1.3 due to the longer time required to reach complete inactivation in the oocyte expression system without β1.
(§2) The preparation and injection of Xenopus laevis oocytes and NaV channel recordings using two-electrode voltage-clamp (TEVC) were carried out as described previously. Capped cRNA encoding rat NaV1.2, NaV1.3 and NaV1.4, and human NaV1.5 and NaV1.7 were injected at 20–40 ng of cRNA/oocyte and kept at 17–18 °C in ND96 solution containing (in mM) 96 NaCl, 2 KCl, 1 CaCl2, 2 MgCl2, 5 HEPES, 5 pyruvic acid, 50 µg/ml gentamicin (pH 7.4), and horse serum (2.5%). Membrane currents were recorded 2–5 days after injection. Oocytes were clamped at −90 mV and currents were elicited by a 50 ms depolarising step to −10 or 0 mV every 10 s for concentration response curves. Both peak and late current (50 ms post peak) were analysed. The concentration response curves were fitted to the Hill equation (GraphPad Prism 6). Current-voltage (I-V) relationships and voltage-dependence of fast inactivation were determined using a family of 100 ms conditioning pulses from −100 mV to +50 mV (+60 mV for rNaV1.3) in 5 mV steps, followed by a test depolarisation step to 0 mV with a 20 s sweep interval from a holding potential of −90 mV. To determine the voltage-dependence of activation non-normalised peak current was used from the I-V family to calculate channel conductance using the equation: G(V) = I/(V − V rev), in which I, V, and V rev represent inward NaV current, test potential, and reversal potential, respectively. The half-activation potential (V 1/2) was determined using a Boltzmann fit (GraphPad Prism 6). All data points are shown as the pIC50 ± S.E.M., as well as the IC50. Replicates (n) represent separate experimental oocytes. Pre1a was resuspended in ND96 solution containing 0.1% bovine serum albumin for all activity analysis. […]

[5] = biological target: hNaV1.6 (Homo sapiens, UniProt Q9UQD0); experiment: QPatch automated patch clamp, HEK293 cells stably co-expressing hNaV1.6 and NaVβ1; format: cell-based; settings: HEK, with NaVβ1, QPatch16, 5–10 min incubation, holding −100 mV; n ≥ 6; read-out: peak current inhibition IC50
Procedure: (§3) For patch clamp analysis, HEK293 cells stably co-expressing the hNaV1.1, hNaV1.6, or hNaV1.7 α-subunit with the NaVβ1-subunit (SB Drug Discovery) were cultured following manufacturer guidelines. Cells were removed from culture at 70% confluency using Detachin (Genlantis) and resuspended to 5 × 10^6 cells/mL in Ex-Cell ACF CHO Medium (Life Technologies) supplemented with 25 mM HEPES (Sigma-Aldrich) and 1 × Glutamax (Life Technologies) before being transferred to the Q-Patch Q-Stirrer and allowed to recover for 30 min before assay.
(§4) The external solution contained (in mM): 140 NaCl, 4 KCl, 2 CaCl2, 1 MgCl2, 10 HEPES, 20 TEA-Cl, 10 glucose, pH 7.4 (with NaOH) and adjusted to 315 mOsm 0.05% BSA was added to prevent adsorptive loss of peptide. The intracellular solution contained (in mM): 140 CsF, 1/5 EGTA/CsOH, 10 HEPES and 10 NaCl, pH 7.4 (with CsOH) and adjusted to 320 mOsm. Whole-cell patch-clamp experiments were performed at room temperature on a QPatch-16 automated electrophysiology platform (Biolin Scientific) using 16-channel planar patch chip plates (Q-Plates) with a patch hole diameter of 1 µm and resistance of 2 ± 0.1 MΩ. […] Pre1a concentrations were incubated for a fixed time of 5–10 min to allow steady-state activity, monitored by the I-T plot.

[6] = biological target: T3, hNaV1.7 (Homo sapiens, UniProt Q15858); experiment: Two-electrode voltage clamp, hNaV1.7 expressed in Xenopus oocytes; format: cell-based; set-up: expressed in transfected cells; host or cells: Xenopus laevis oocytes (cRNA injection, alpha subunit alone)
Procedure: as §2, with “To determine the voltage-dependence of activation non-normalised peak current was used from the I-V family to calculate channel conductance using the equation: G(V) = I/(V − V rev), in which I, V, and V rev represent inward NaV current, test potential, and reversal potential, respectively.” left out, “6).” for “6). All data points are shown as the pIC50 ± S.E.M., as well as the IC50. Replicates (n) represent separate experimental oocytes. Pre1a was resuspended in ND96 solution containing 0.1% bovine serum albumin for all activity analysis.”
Target sequence in this assay (Q15858 whole entry): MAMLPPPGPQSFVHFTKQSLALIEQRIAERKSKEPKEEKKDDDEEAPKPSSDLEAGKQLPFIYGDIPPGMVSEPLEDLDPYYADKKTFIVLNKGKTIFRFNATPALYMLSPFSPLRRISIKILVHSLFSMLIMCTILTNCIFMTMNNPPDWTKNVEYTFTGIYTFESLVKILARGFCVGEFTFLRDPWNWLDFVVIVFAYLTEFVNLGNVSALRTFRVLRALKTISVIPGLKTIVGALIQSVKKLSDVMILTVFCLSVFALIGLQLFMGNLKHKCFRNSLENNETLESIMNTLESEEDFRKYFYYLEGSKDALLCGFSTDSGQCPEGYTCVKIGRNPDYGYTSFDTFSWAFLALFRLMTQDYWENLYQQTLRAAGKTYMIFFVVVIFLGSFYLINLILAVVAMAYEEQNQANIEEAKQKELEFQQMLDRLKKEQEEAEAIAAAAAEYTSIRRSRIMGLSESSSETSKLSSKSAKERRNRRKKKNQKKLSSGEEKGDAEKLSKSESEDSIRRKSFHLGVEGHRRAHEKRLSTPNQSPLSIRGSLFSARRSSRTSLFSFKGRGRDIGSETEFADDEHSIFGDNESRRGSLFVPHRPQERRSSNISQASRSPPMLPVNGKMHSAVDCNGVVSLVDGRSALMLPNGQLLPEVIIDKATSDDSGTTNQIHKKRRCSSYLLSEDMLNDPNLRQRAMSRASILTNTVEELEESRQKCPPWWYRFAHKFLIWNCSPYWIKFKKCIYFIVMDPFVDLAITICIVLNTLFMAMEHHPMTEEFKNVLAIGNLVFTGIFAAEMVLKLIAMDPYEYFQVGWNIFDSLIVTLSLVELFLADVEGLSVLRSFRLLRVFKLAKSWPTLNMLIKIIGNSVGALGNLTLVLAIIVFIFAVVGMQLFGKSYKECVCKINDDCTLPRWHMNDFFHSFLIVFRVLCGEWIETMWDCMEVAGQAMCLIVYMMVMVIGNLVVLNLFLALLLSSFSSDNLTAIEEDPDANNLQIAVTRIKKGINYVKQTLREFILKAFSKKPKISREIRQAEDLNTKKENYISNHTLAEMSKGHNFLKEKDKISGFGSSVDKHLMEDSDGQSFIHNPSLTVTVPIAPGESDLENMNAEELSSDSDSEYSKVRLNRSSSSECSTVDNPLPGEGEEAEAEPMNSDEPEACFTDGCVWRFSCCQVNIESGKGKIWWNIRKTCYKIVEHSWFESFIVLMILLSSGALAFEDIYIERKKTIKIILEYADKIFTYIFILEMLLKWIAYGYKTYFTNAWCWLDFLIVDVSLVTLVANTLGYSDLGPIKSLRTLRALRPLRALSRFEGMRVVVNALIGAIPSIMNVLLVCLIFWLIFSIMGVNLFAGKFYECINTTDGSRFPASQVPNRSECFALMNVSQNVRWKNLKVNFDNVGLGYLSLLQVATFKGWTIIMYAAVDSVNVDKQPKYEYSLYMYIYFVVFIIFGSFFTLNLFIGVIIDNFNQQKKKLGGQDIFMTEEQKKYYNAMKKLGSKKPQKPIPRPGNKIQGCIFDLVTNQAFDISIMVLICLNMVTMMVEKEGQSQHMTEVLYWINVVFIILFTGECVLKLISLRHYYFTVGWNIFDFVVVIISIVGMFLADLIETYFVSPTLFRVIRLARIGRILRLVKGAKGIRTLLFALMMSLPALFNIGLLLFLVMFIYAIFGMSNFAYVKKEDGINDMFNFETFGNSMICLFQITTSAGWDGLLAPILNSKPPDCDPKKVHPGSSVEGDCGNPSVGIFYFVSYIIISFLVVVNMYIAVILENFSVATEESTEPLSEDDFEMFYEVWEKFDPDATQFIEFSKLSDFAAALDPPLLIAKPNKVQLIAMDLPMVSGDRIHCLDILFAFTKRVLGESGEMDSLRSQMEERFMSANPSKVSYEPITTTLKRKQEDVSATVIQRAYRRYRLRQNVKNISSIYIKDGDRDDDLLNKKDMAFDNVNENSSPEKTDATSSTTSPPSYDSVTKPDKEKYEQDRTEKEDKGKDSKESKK

[7] = biological target: T3, hNaV1.7; experiment: QPatch automated patch clamp, HEK293 cells stably co-expressing hNaV1.7 and NaVβ1; format: cell-based
Procedure: as §3, §4
Target sequence in this assay (Q07699 19-218): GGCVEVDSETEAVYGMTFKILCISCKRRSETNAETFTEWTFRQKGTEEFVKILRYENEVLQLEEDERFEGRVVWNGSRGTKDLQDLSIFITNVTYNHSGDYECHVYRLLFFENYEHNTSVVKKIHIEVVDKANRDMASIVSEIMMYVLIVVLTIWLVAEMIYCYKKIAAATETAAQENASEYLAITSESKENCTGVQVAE
Target sequence in this assay (Q15858 whole entry): as the sequence (Q15858 whole entry) above

[8] = biological target: T4, rNaV1.2 (Rattus norvegicus, UniProt P04775); experiment: Two-electrode voltage clamp, rNaV1.2 expressed in Xenopus oocytes; format: cell-based; settings: α-subunit alone, clamped at −90 mV, 50 ms step to −10 or 0 mV, recombinant Pre1a, n ≥ 5, read-out: peak current inhibition IC50
T4 construct: expressed in transfected cells; host or cells: Xenopus laevis oocytes (cRNA injection, alpha subunit alone)
Procedure: as §2, with “To determine the voltage-dependence of activation non-normalised peak current was used from the I-V family to calculate channel conductance using the equation: G(V) = I/(V − V rev), in which I, V, and V rev represent inward NaV current, test potential, and reversal potential, respectively.” left out, “6).” for “6). All data points are shown as the pIC50 ± S.E.M., as well as the IC50. Replicates (n) represent separate experimental oocytes. Pre1a was resuspended in ND96 solution containing 0.1% bovine serum albumin for all activity analysis.”

[9] = biological target: T1, hNaV1.1; experiment: QPatch automated patch clamp, HEK293 cells stably co-expressing hNaV1.1 and NaVβ1; format: cell-based; settings: HEK
Procedure: as §3, §4

[10] = tested on: NaV channel DII; settings: mutagenesis; cited from earlier work
Excerpt: The striking differences in effects on NaV1.1, 1.2 and 1.3 are of particular significance for understanding the molecular basis of Pre1a’s subtype selectivity as these three channels have essentially identical S3-S4 linker regions in both DII and DIV (Fig. 7a) (note that NaV1.1 DII S3-S4 has an M to V ...

[11] = tested on: NaV channels; settings: cited from earlier work
Excerpt: These VSD modulating peptides have been described to modify channel gating in three distinct ways depending on the domain they target and the effect on that domain[17]. Domain IV of the NaV channel α-subunit uniquely controls inactivation of the channel, thus spider peptides that interact with and hinder the normal function of VSDIV slow or inhibit fast inactivation of the channel and may result in persistent current. Conversely, spider venom peptides that interact with DI, DII, and DIII VSD modulate channel activation. Most of those discovered to date cause a shift in the voltage- ... || NaV channel fast inactivation is controlled by the movement of the DIV voltage-sensing domain[17]. […] However, all these peptides share less than 50% similarity with Pre1a (See Fig. 1d) and have very differ ...

[12] = biological target: rat NaV1.3 α-subunit (rat) (UniProt P08104)
[13] = biological target: human NaV1.5 α-subunit (human) (UniProt Q14524)
[14] = biological target: human NaV1.7 α-subunit (in oocytes) (human) (UniProt Q15858)
[15] = biological target: rat NaV1.4 α-subunit (rat) (UniProt P15390)
[16] = biological target: rat NaV1.2 α-subunit (rat) (UniProt P04775)
[17] = biological target: rat NaV1.3 α-subunit (rat) (UniProt P08104); remark: listed apart in the source
[18] = biological target: rat NaV1.3 α-subunit (rat) (UniProt P08104); remark: listed apart in the source
[19] = biological target: human NaV1.7 α-subunit (in oocytes) (human) (UniProt Q15858); remark: listed apart in the source
[20] = biological target: rat NaV1.2 α-subunit (rat) (UniProt P04775); remark: listed apart in the source
[21] = biological target: rat NaV1.3 α-subunit (rat) (UniProt P08104); remark: listed apart in the source
[22] = biological target: KV2.1 chimaera with the S3-S4 linker region of hNaV1.7 DIV
[23] = biological target: KV2.1 chimaera with the S3-S4 linker region of hNaV1.7 DII
[24] = biological target: human NaV1.1 α-subunit (in HEK293 cells) (human) (UniProt P35498)
[25] = biological target: human NaV1.7 α-subunit (in HEK293 cells) (human) (UniProt Q15858)
[26] = biological target: human NaV1.6 α-subunit (in HEK293 cells) (human) (UniProt Q9UQD0)
[27] = biological target: human NaV1.1 α-subunit (in HEK293 cells) (human) (UniProt P35498); remark: listed apart in the source

T2 sequence (P08104 whole entry): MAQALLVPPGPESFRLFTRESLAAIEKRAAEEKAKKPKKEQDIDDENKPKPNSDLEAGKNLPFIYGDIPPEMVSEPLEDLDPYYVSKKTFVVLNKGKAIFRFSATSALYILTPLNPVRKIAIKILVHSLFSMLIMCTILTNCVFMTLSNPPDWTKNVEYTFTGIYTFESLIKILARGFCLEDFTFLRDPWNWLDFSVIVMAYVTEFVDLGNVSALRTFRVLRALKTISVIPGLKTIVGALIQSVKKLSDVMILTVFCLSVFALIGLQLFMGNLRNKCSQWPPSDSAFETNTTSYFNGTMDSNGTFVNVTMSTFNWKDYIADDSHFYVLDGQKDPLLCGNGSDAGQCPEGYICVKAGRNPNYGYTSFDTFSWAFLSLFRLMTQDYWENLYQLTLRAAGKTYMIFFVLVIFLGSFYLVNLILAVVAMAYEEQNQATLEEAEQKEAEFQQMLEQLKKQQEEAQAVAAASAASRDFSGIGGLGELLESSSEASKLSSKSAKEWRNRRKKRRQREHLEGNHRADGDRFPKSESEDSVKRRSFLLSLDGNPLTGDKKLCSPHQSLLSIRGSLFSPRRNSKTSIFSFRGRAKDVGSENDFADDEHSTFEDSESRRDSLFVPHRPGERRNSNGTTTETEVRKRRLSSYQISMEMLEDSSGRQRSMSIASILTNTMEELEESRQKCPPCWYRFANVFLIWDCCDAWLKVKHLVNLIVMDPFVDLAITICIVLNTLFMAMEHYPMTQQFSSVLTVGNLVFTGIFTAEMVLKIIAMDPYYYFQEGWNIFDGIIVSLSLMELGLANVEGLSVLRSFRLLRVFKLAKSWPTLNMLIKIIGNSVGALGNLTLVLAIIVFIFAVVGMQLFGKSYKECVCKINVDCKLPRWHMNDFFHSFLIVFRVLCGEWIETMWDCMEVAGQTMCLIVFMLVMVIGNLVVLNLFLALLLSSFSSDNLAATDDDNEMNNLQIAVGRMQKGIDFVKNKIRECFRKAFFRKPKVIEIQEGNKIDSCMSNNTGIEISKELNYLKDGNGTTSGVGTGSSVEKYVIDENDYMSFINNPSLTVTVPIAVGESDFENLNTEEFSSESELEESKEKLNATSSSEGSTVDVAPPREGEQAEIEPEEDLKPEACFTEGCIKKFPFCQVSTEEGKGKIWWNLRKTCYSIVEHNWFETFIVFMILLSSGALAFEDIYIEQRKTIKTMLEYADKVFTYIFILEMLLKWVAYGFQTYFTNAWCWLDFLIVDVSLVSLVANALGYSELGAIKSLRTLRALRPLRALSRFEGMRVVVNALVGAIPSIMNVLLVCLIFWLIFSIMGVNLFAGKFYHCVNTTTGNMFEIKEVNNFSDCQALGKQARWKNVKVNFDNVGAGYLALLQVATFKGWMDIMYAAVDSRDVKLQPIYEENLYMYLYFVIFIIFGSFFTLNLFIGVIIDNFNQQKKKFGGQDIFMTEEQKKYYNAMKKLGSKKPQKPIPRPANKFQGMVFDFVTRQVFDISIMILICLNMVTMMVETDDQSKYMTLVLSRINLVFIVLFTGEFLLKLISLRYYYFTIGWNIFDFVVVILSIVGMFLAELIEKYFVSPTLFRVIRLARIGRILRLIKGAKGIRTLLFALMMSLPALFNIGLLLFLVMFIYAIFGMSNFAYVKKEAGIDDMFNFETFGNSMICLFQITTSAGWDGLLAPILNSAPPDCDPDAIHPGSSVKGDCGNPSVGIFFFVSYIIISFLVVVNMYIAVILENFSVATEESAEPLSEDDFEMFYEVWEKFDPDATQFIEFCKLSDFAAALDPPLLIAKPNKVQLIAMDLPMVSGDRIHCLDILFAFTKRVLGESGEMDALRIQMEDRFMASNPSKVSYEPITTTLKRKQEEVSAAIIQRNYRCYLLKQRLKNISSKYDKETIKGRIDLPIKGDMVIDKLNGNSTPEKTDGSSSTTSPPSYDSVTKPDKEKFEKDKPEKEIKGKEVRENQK
Chain of rat NaV1.3 α-subunit (rat) (P08104 whole entry): as above
Chain of human NaV1.7 α-subunit (in oocytes) (human) (Q15858 whole entry): as the sequence (Q15858 whole entry) above
Chain of human NaV1.7 α-subunit (in HEK293 cells) (human) (Q15858 whole entry): as above

CCN1CC(n2nccc2-c2cc(C(F)(F)F)ccc2Oc2ccc(S(=O)(=O)Nc3ncns3)cc2C#N)C1 [GX-936]
state in which VSD is arrested [1]: arrests the VSD in the inactivated state

O=C(Nc1ccc(S(=O)(=O)Nc2nccs2)cc1)C(c1ccccc1)c1ccccc1 [ICA-121431]
selectivity [2]: ~ 1000 fold
selectivity [3]: ~ 1000 fold

CC[C@H](C)[C@H](NC(=O)[C@H](CCCCN)NC(=O)[C@H](Cc1ccc(O)cc1)NC(=O)[C@H](CCCCN)NC(=O)[C@@H]1CSSC[C@@H]2NC(=O)[C@H](CCCCN)NC(=O)[C@H](CC(=O)O)NC(=O)[C@H](CC(N)=O)NC(=O)[C@H](CCCCN)NC(=O)[C@@H]3CCCN3C(=O)[C@H](CO)NC(=O)[C@@H]3CSSC[C@H](NC(=O)[C@H](CCCCN)NC(=O)[C@H](Cc4ccc(O)cc4)NC(=O)[C@H](CC(N)=O)NC(=O)[C@@H]4CCCN4C(=O)[C@H](CSSC[C@H](NC(=O)[C@H](CC(=O)O)NC(=O)[C@@H](N)CCC(=O)O)C(=O)N[C@@H](CC(C)C)C(=O)NCC(=O)N[C@@H](Cc4c[nH]c5ccccc45)C(=O)N[C@@H](Cc4ccccc4)C(=O)N[C@@H](CO)C(=O)N[C@@H](CCCNC(=N)N)C(=O)N3)NC2=O)C(=O)N[C@@H](CO)C(=O)N[C@@H](CO)C(=O)N[C@@H](CCCCN)C(=O)N[C@@H](CC(=O)O)C(=O)N[C@@H](CC(C)C)C(=O)N[C@@H](Cc2c[nH]c3ccccc23)C(=O)N1)C(=O)N[C@@H](Cc1c[nH]c2ccccc12)C(=O)O [Pre1a] (H-EDCLGWFSRCSPKNDKCCPNYKCSSKDLWCKYKIW-OH; disulfide 3-18, 10-23, 17-30)
EC50 ([4]; late current at 100 ms, ± S.E.M.): 0.0457 µM
selectivity for inhibiting inactivation over activation ([4]; rNaV1.3 inactivation vs activation): more than 150 fold
IC50 ([4]; recombinant Pre1a, ± S.E.M., read-out: peak current inhibition pIC50 (converted)): 7.94 µM
IC50 [5]: 0.222 µM
IC50 [6]: 0.114 µM
selectivity for inhibiting activation over NaV1.3 ([6]; NaV1.7 activation vs NaV1.3): ~ 70 fold
IC50 [7]: 0.0151 µM
IC50 [8]: 0.19 µM
IC50 ([9]; QPatch16, read-out: peak current inhibition pIC50 (converted)): 0.0575 µM
EC50 ([9]; late current at 10 ms from peak, read-out: inhibition of fast inactivation pEC50 (converted)): 0.0417 µM

HwTxIV
effect of divergent residues in S2 region 1 on activity [10]: little effect on the activity

ProTx-II: spider peptide
effect on peak current and fast inactivation [11]: inhibit both peak current and fast inactivation of NaV channels

recombinant β/δ-TRTX-Pre1a (peptide)
EC50 of inhibition of inactivation (late current at 100 ms), two-electrode voltage clamp, Xenopus oocytes [12]: 0.0455 µM
percent inhibition of peak current amplitude by 1 μM Pre1a (weak), two-electrode voltage clamp, Xenopus oocytes [13]: 8.6%
IC50 of inhibition of peak inward current, two-electrode voltage clamp, Xenopus oocytes [14]: 0.114 µM
percent inhibition of peak current amplitude by 1 μM Pre1a (weak), two-electrode voltage clamp, Xenopus oocytes [15]: 16.5%
IC50 of inhibition of peak inward current, two-electrode voltage clamp, Xenopus oocytes [16]: 0.19 µM
IC50 of inhibition of peak inward current (weak), two-electrode voltage clamp, Xenopus oocytes [17]: 8 µM
EC50 of inhibition of inactivation (late current), as printed in the legend, Xenopus oocytes [18]: 0.045 µM

β/δ-TRTX-Pre1a (synthetic or recombinant not stated for the experiment) (peptide)
shift of the V1/2 of activation by 1 µM Pre1a, Xenopus oocytes [19]: 13.8 mV
shift of the V1/2 of activation by 1 µM Pre1a, Xenopus oocytes [20]: 14.9 mV
shift of the V1/2 of activation of the late current by 1 μM Pre1a, Xenopus oocytes [21]: 9.6 mV
percent inhibition of outward (peak) current by 1 μM Pre1a [22]: 27.1%
percent inhibition of outward (peak) current by 1 μM Pre1a [23]: 44%
EC50 of inhibition of fast inactivation (late current at 10 ms from peak), QPatch, HEK cells [24]: 0.0414 µM
IC50 of inhibition of peak current, QPatch16 automated patch clamp, HEK cells [25]: 0.015 µM
IC50 of inhibition of peak current, QPatch16 automated patch clamp, HEK cells [26]: 0.222 µM
IC50 of inhibition of peak current, QPatch16 automated patch clamp, HEK cells [27]: 0.0571 µM
